# The supplement of paper PMC9170038
# System: MS2 coat protein
# Test: apparent KD of MS2 coat protein; designed switch direction (-1 OFF switch, 1 ON switch): -1; higher = weaker reporter binding
# In short: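 Three titration conditions were used: no input, 200 uM small-molecule ligand, and an oligonucleotide input. In each, SNAP-549-labelled MS2 coat protein was raised from 0.7 or 1.5 nM, doubling, to 3 µM over designed RNA switches transcribed on Illumina chips by stalled E. coli RNA polymerase. Curve fits of normalised cluster fluorescence gave values whose per-design median over clusters is the apparent KD.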
# [1] = input ligand: microRNA oligo, concentration not stated
# [2] = Eterna round: R95, input ligand: FMN 200 uM
# [3] = Eterna round: R95, input ligand: microRNA oligo, concentration not stated
# [4] = Eterna round: R95, input ligand: none
Sequence,apparent KD of MS2 coat protein (input ligand: FMN 200 uM),apparent KD of MS2 coat protein (input ligand: none),apparent KD of MS2 coat protein [1],apparent KD of MS2 coat protein [2],apparent KD of MS2 coat protein [3],apparent KD of MS2 coat protein [4]
"GUUUUCAGACGGAGAUCCGACAUGAGGAUCACCCAUGUCUCACAAGCUUUUUGCUCGUCUUAUACUCCUCUGUUCUC [Elimod 43 - Jieux - Sensor, turn-off variant 1] (Eterna round: R97, puzzle: Sensor, turn-off variant 1)",16.9 nM,15.9 nM,,,,
"GUCAGCUCGUCAGGAUAUACAUGAGGAUCACCCAUGUGAUCAAUAGCAGCUUCGGCUGCAUUAAUGUAGAAGGGACGAGCUGAC [ENG2/5-B1] (Eterna round: R96, puzzle: Exclusion NG 2)",34.7 nM,368 nM,33 nM,,,
"GCUAGGAGUGUGAGGAUAUGCAGUUCCUUGGAACUGCAGAAGGCACAUGAGGAUCACCCAUGUGAAGACCUAGC [Mat - Exclusion 4 - JL Mod - D4] (Eterna round: R97, puzzle: Brourd's mod of Exclusion 4)",212 nM,26.6 nM,,,,
"CUCCUCGUGGCGCCUAAACACAUGAGGAUCACCCAUGUACAGGCUUUUUGCCGUCUUAUAAUAAAACCGAGGAGGCG [Arce] (puzzle: Sensor v3, turn-off variant 1)",,,,13.7 nM,22.1 nM,15.9 nM
"UUUUAGCAAGCGAGAAUUAACAUGAGGAUCACCCAUGUGCAUCCAGAAUUACUUUUAGAACAAGCUCGUCUUAUAUA [JR_STOV1_v2_Sub081] (Eterna round: R97, puzzle: Sensor, turn-off variant 1)",353 nM,401 nM,,,,
"AUCCUACAUGAGGAUCACCCAUGUCAGGAUAUCCAAGAAAUGUGGCCUGAUUGGCCACGGAGAAGGGACGGGUG [jl-ex1-4.60 ViennaUCT mod] (Eterna round: R97, puzzle: Exclusion 1)",47.2 nM,45 nM,,,,
"CCGACCUGAGGAUAUAGCGUCCGCGACAUGAGGAUCACCCAUGUCCCUCAUAACGUAAAACUAGAAGGUAGAGUCG [Eternabot (L1) Solution 75] (Eterna round: R97, puzzle: Exclusion 5)",29.8 nM,25.7 nM,,,,
"CUGCUCCGUGUAGGAUAUGCGCGCAACCAACGCGCAGAAGGACAUGAGGAUCACCCAUGUAUGUUAUUAUCACGUGAAGCGUCC [Design 30] (Eterna round: R96, puzzle: Exclusion NG 1)",56.7 nM,18.2 nM,19.9 nM,,,
"CGCCCUGACGAAGGAUAUUAAGCUCAUACAUGAGGAUCACCCAUGUCCAUAGUAGUGUAUGCACCUGAGAAGGUCGUCAGCGCU [Eternabot solution 50] (Eterna round: R96, puzzle: Exclusion NG 2)",213 nM,257 nM,240 nM,,,
"CUGAGGUAGCGGUCCUAUGACAUGAGGAUCACCCAUGUACCUUGCUUUGAGCUUUAAGCUCGUCUUAUGAUUCUCGG [Mat - Sensor v3 - turn-off var 1 - JL Mod - D44] (puzzle: Sensor v3, turn-off variant 1)",,,,504 nM,625 nM,861 nM
CCGGAUAUGCAGGAUAUCGUAUCGGAAACGAUACGAGAAGGGUAUACAUGAGGAUCACCCAUGUGUCCUACCGG [Fiskers Ex 6 - 20] (puzzle: Exclusion 6),,,,,23.8 nM,
"GCAAGCUUUUUGGUUUUCAACAUGAGGAUCACCCAUGUUCGUCUUGUGCUCGGGCUUGGGCGGUGUCCGGGUUUGGG [Default title] (Eterna round: R97, puzzle: Sensor, turn-off variant 1)",45.8 nM,48.5 nM,,,,
"AGUAGUUCAGGAUAUGAUGUUAAAUACAUGAGGAUCACCCAUGUAGAUCCUGAAUUUACAUCAGAAGGGAAUAACU [JR_Ex5_Sub082] (Eterna round: R97, puzzle: Exclusion 5)",91.7 nM,25.5 nM,,,,
"CCCGGAUCAACUCCCGGGAACAACAUGAGGAUCACCCAUGUCUAGGAUAUCCACCAGUCAAUAAAGGAGAAGGAGACGGUGGUU [Raesessoqu] (Eterna round: R96, puzzle: Exclusion NG 3)",32.5 nM,30.5 nM,23.3 nM,,,
"UUUAUAAUUUCAAUCUUCGCUGGCAAACUUACGCCAGCCACAUGAGGAUCACCCAUGUUUUUUGUUCGUUUUAUUCU [Xeinzarace] (puzzle: Sensor v3, turn-off variant 2)",,,,18.8 nM,49.8 nM,22.6 nM
"UAACGGGUUUCUUCGUUUACAACAUGAGGAUCACCCAUGUUUGAGGAUAUCCACUAAGCUCUUCAGGAGAAGGCAAACAUAAUG [Teanarxe] (Eterna round: R96, puzzle: Exclusion NG 3)",20.6 nM,15.4 nM,12.2 nM,,,
"ACUGGAUGCAAGCAGGUCCACAUGAGGAUCACCCAUGUUCGUCGGCCAGCAUCGGCUUCUACCGCAAGCCGCGUGCA [Eternabot (L1) Solution 27] (Eterna round: R97, puzzle: Sensor, turn-off variant 1)",15.9 nM,18.8 nM,,,,

Sequence,apparent KD of MS2 coat protein (input ligand: FMN 200 uM),apparent KD of MS2 coat protein (input ligand: none),apparent KD of MS2 coat protein [1],apparent KD of MS2 coat protein [2],apparent KD of MS2 coat protein [3],apparent KD of MS2 coat protein [4]
"CUGAUGUUAGGAUAUCAGGUCACGCGCGAAGGCGCGCGGCAUGAGAAGGAACAUGAGGAUCACCCAUGUGACGA [Reisquso] (Eterna round: R96, puzzle: Exclusion 4)",305 nM,43.3 nM,29.6 nM,,,
"GUCAGCUCGUCAGGAUAUACAUGAGGAUCACCCAUGUGAUCAAUAGCAGCUUCGGCUGCAAUAAUGUAGAAGGGACGAGCUGAC [ENG2/8-F] (Eterna round: R96, puzzle: Exclusion NG 2)",129 nM,180 nM,578 nM,,,
"AUGUGCACGCUGCGAUCCUACAUGAGGAUCACCCAUGUGGUCUGGUGGCGUGGGUCACCGGACUUGGCUCGUCUUGU [salish99_S_TOV1_R5_081] (Eterna round: R97, puzzle: Sensor, turn-off variant 1)",62.1 nM,77.8 nM,,,,
GGUGCGUAUGUGAGGAUAUGCUGGUCCUUGGGUCAGCAGAAGGCACAUGAGGAUCACCCAUGUGGUGUCGUACC [salish99_Bmod_Ex4_026] (puzzle: Brourd's mod of Exclusion 4),,,,20.3 nM,345 nM,344 nM
UCGCUGCGAGGAUAUACGUGCGCGCGCGCGCGCGCGCGCGUACAUGAGGAUCACCCAUGUAGAAGGCGCGCUGC [Apr-15 SS2-1] (puzzle: Exclusion 2),,,,,12.5 nM,
"CGUCUGUAAGGAUAUGGUUGCAUCAACAUGAGGAUCACCCAUGUUACAUGGGACUAGUGAUUAGAAGGUACGAACG [EX5 #57] (Eterna round: R97, puzzle: Exclusion 5)",58.3 nM,54.2 nM,,,,
AAGAAACAUGAGGAUCACCCAUGUGAGGAUAUGAGCAAGAAAAGAAAAGAAAGAAGACUCAGAAGGCACAAAGG [salish99-ex1_r3_072] (puzzle: Exclusion 1),,,,90.2 nM,110 nM,106 nM
"GAUUAACAUGAGGAUCACCCAUGUGAGGAUAUUGACUUGCUCACUUUCCCAUUAGAGUCGAGAAGGCGCAUCUU [1986#18] (Eterna round: R97, puzzle: Exclusion 1)",25.2 nM,28.6 nM,,,,
"AGGACGAUAGGAUAUACAUGAGGAUCACCCAUGUGCAUAAGAAUAUGCCAAUCCACGCGUAGAAGGAUCAUAAU [Eternabot (Original) Solution 11] (Eterna round: R97, puzzle: Exclusion 3)",65.4 nM,28.1 nM,,,,
"UUUACAAGCUUAAGAUCCCACAUGAGGAUCACCCAUGUUGCUGCCGGUGACGGUAGCAUAACUUAUGCUCGUCUUAU [JL TOV1 3.60] (Eterna round: R97, puzzle: Sensor, turn-off variant 1)",177 nM,188 nM,,,,
"CUGUGCACGCUGCGGUCCUACAUGAGGAUCACCCAUGUGGUCUGGUGGCGUGGGUCACCGGACUUGGCUCGUCUUGC [salish99_S_TOV1_R5_062] (Eterna round: R97, puzzle: Sensor, turn-off variant 1)",22.9 nM,22.5 nM,,,,
"UGUUGUUACGCAGGAUAUGGCCAACAGGCCCUAGGAUAUCCGAAAGGAGAAGGAGCGCCAACAGGCGAGAAGGGCGGGUUAACA [pwkr exNG2 2xF7 2xFMN.14] (Eterna round: R96, puzzle: Exclusion NG 2)",201 nM,140 nM,55.7 nM,,,
CAUGUGUAAGGAUAUGACAAUGGUAUCUUCGGAUACCAUUGUCAGAAGGUACAUGAGGAUCACCCAUGUACAUC [Ex4-3: 17] (puzzle: Exclusion 4),,,,,13.1 nM,
CCUUAGUCAGGAUAUUGAGGUAAAAGAAAAGAAAACGACAGCAAGAAGGGACAUGAGGAUCACCCAUGUAUAAA [Bequxeain] (puzzle: Exclusion 4),,,,24.4 nM,30.1 nM,16.2 nM
"CGUCAGUGAGGAUAUGGUAACAUUUACAUGAGGAUCACCCAUGUUUCUUGGGACUAAAUACUAGAAGGCACUGACG [JR_Ex5_Sub032] (Eterna round: R97, puzzle: Exclusion 5)",23.1 nM,15 nM,,,,
"CAUGAUUGGCGAGGAUAUUGAUCUAGUUGGCGACGAGAAGGCGCCUGUCACAUGAGGAUCACCCAUGUGAAUCUGGUGAAAGAG [Ex NG1 #89] (Eterna round: R96, puzzle: Exclusion NG 1)",24.9 nM,25.9 nM,18.5 nM,,,
